Reference: the nanobody polyreactivity screen of Harvey et al. (2022)

Experiment: yeast display, Sf9 membrane polyspecificity reagent, FACS + sequencing; frameworks hold sequencing errors
In short: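 Nanobodies from a synthetic yeast display library (Saccharomyces cerevisiae BJ5465), induced 36–48 hours with galactose, were stained 1 hour at 4 °C with 10% biotinylated, detergent-solubilized Sf9 membrane reagent, enriched on streptavidin microbeads, then FACS-sorted. Anti-HA (expression) and streptavidin (reagent binding) fluorescence set low and high (top ~1%) gates. Polyreactivity labels come from the gate of origin. Genes were colony-PCR amplified, MiSeq 2 × 250 sequenced and filtered by CDR length.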

For “QLQLVESGGGLVQAGGRLRLSCAASGFIFHINARGWYRQAPGKEREFVAAISRSVGSTSYADTVKGRFTNSRDNAKNTVYLLMNSLKPEDTAVYYCNAALRKRKGPYDYWGQGTQVTVSS”, which “polyreactivity (PSR sort gate)” value is on record?
The value was “high polyreactivity”.

For “QLQLVESGGGLVQAGGSLRFSCAASGFTFVWYVRGWYRQAPVKARELVASSTSTGSTNYADSVKGRYTISRDNAKNTVYLQMNSLKPEDTAVYYCNARGSYKRTRYGKWGQGTQVTVSS”, which “polyreactivity (PSR sort gate)” value is on record?
Its value is “high polyreactivity”.

Which “polyreactivity (PSR sort gate)” value does the source give for “QLQLVESGGGLVQAGGSLRLICAASGLTFVHYTMGWYRQAPGKERELVAAISWNGASTYYADSVKGRFTISRDNAKNTVDIQMNSLKPEDTAVYYCAAGYAQPRYYTDYYWGEGTQVTVSS” here?
The value was “high polyreactivity”.

Which “polyreactivity (PSR sort gate)” value does the source give for “QLQLVESGGGLVQAGGSLRLSCAASGFTFSYYAKGWYRQAPGKERELVAAISINGGRTYYADSVKGRFTISRDNAKNTVYLQMNSLKPEDTAVYYCNAVSYAYTVRMDYWGQGTQVTVSS” here?
Its value is “high polyreactivity”.

Which “polyreactivity (PSR sort gate)” value does the source give for “QLQLVESGGGLVQAGGSLRLSCAASGFTFYLYVLGWYRQAPGKEREFVAAITGSGTSTYYADSVKGRFTISRDNAKNTVYLQMNSLKPEDTAVYYCNAKRDRYFYTVKYDYWGQGTQVTVSS” here?
Its value is “low polyreactivity”.

For “QLQLVESGGGLVQAGGSLRLSCAASGFTFYRYAKGWYRQAPGKARELVAAISWSGGTTYFADSVKGRFTISRDNAKNTVYLQMNSLTPEDTAVEYCNARFIARSGYKVDYDYWGQGTQVTVSS”, which “polyreactivity (PSR sort gate)” value is on record?
Its value is “high polyreactivity”.

For “QLQLVESGGGLVQAGGSLRLSCAASGGPFRPYAMGWYRQAPGKERELVAAISYTGSTYYADSVKGRFTISRDNAKNTVYLQMNSLKPEDTAVYYCAKDFWYPPRFDYWGQGTQVTVSS”, which “polyreactivity (PSR sort gate)” value is on record?
The value was “low polyreactivity”.

Which “polyreactivity (PSR sort gate)” value does the source give for “QLQLVESGGGLVQAGGSLRLSCAASGGTFYTNAMGRYRQAPGKEREFVAAISWIGGSTRYADSVKGRFTISRDNAKNTVYLQMNSLKPEDTEVYFCAAEDVFWVGEYYYEMDYWGQGTQVTVSS” here?
Its value is “high polyreactivity”.

Which “polyreactivity (PSR sort gate)” value does the source give for “QLQLVESGGGLVQAGGSLRLSCAASGIIFDFYAMGWYRQAPGKERELVAAITSSGGSTYYADSVKGRFTISRDNAKNTVYLQMNSLKPEDTAVYYCAADPWFYGYYDMDYWGQGTQVTVSS” here?
The value was “low polyreactivity”.

Which “polyreactivity (PSR sort gate)” value does the source give for “QLQLVESGGGLVQAGGSLRLSCAASGITFYGYAMGWYRQAPGKERELVAAISSRGGSTYYADSVKGRFTISRDNAKNTVYLQMNRLKPEDTAVYYCAAVYYTGEYYYWGQGTQVTVSS” here?
The value was “high polyreactivity”.

Which “polyreactivity (PSR sort gate)” value does the source give for “QLQLVESGGGLVQAGGSLRLSCAASGLIFYDNMGWYRQAPGKERELVAAISSSGGSTSYADSVKGRFTISRDNAKNTVYLHMNSLKPEDTAVYYCAADSYPAYLGFVGFDYWGQGTQVTVSS” here?
Its value is “low polyreactivity”.

With “QLQLVESGGGLVQAGGSLRLSCAASGLTFYWYAMGWYRQAPGKERELVAAITSTGSTYYADSVKGRFTISRDNAKNTVYLQMNILKPEDTAVYYCNADFPANWGWDYDYWGQGTQVTVSS” as the sequence, how does the “polyreactivity (PSR sort gate)” value read?
Its value is “low polyreactivity”.

For “QLQLVESGGGLVQAGGSLRLSCAASGRTFFKYVMGWYRQAPGKERELVAAISYRSGSTYYADSVKGRFTISRDNAKNTVYLQMNSLKPEDTAVYYCAKEPPPVKGDYWGQGTQVTVSS”, which “polyreactivity (PSR sort gate)” value is on record?
The value was “low polyreactivity”.

Which “polyreactivity (PSR sort gate)” value does the source give for “QLQLVESGGGLVQAGGSLRLSCAASGRTFPGNAMGWYRQEPGKERELVATITWSSGRTHYADSVKGRFTISRDNAKNTVYLQMNSLKPEDTAVYYCAAKWIVAVGGFYYWGQGTQVTVSS” here?
The value was “low polyreactivity”.

With “QLQLVESGGGLVQAGGSLRLSCAASGRTFVYNVMGWYRQAPGKERELVAAISSGGSTNYADSVKGRFTNSRDNAKNTVYLQMNRLKPEDSAVYYCNAGTLNYRYRWGHYYDSWGQGTQVTVSS” as the sequence, how does the “polyreactivity (PSR sort gate)” value read?
The value was “low polyreactivity”.

Which “polyreactivity (PSR sort gate)” value does the source give for “QLQLVESGGGLVQAGGSLRLSCAASGSIFKPYALRCYIQAPGKERELVAAITRSGGSTYYADSVKGRFTISRDNAKNTVYLQMNSLKPEDTAVYYCAAGNAPYYRFGSKKYGYWGQGTQVTVSS” here?
The value was “high polyreactivity”.

Which “polyreactivity (PSR sort gate)” value does the source give for “QLQLVESGGGLVQAGGSLRLSCAASGSILGSYAMGWYRQAPGKERELVAAITRRGSSTYYADSVKGRFTISRDNAKNTVYLQMNSLKPEDTAVYYCAVYRRWYSGLYDYWGQGTQVTVSS” here?
The value was “high polyreactivity”.

For “QLQLVESGGGLVQAGGSLRLSCAASGSIYYEKVMGWYRQAPGKERELVAGISRSGGRTYYADSVKGRFTISRDNAKNTVYLQMNSLKPEDTAVYYCAALTPRNRYRKFDYWGQGTQVTVSS”, which “polyreactivity (PSR sort gate)” value is on record?
The value was “high polyreactivity”.

Which “polyreactivity (PSR sort gate)” value does the source give for “QLQLVESGGGLVQAGGSLRLSCAASGSTFATYAMGWYRQAPGKESELVAVITRGGSTYYADSVKGRFTISRDNAKNTVYLQMNSLKPEDTAVYYCAAKAYTYYARIGFDYWGQGTQVTVSS” here?
The value was “high polyreactivity”.

With “QLQLVESGGGLVQAGGSLRLSCAASGSTFGSNAMGWYRQAPGKERELVAAISTSSGSTYYAVSVKGRFTISRDNAMNTVYLQMNSMKPEDTAVYYCNADRHYVPYYSRPRYIPYDYWGQGTQVTVSS” as the sequence, how does the “polyreactivity (PSR sort gate)” value read?
The value was “high polyreactivity”.

Which “polyreactivity (PSR sort gate)” value does the source give for “QLQLVESGGGLVQAGGSLRLSCAASGSTFNYNAMGWYRQAPGKEREFVAAISRSGGSTSYADSVKGRFTISRDNAKNTVYLQMNSLKPEDTAVYYCAAYYRKTGYDYWGQGTQVTVSS” here?
The value was “high polyreactivity”.

With “QLQLVESGGGLVQAGGSLRLSCAASGSTFSVYAMGWYRPAPGKERELVAAISSGGNTKYADSVKGRFTISRDNAKNTVYLQMNSLKPEDTAVYYCNADSQRPAYWDGYWGQGTQVTVSS” as the sequence, how does the “polyreactivity (PSR sort gate)” value read?
Its value is “low polyreactivity”.

With “QLQLVESGGGLVQAGGSLRLSCAASGSTYATYTMGWYRQAPGKERELVAAISVSGSRTYYADSVKGRFTISRDNAKNTVYLQMNSLKPEDTAVYYCNADPPVKLYLYDYWGQGTQVTVSS” as the sequence, how does the “polyreactivity (PSR sort gate)” value read?
Its value is “high polyreactivity”.

For “QLQLVESGGGLVQAGGSLRLSCAASVRTFQNYAMGWYRQAPGKEREFVAAITWRVGTTYYADSVKGRFTISRDNAKNTVYLQMNSLKPEDTAVYYCAARSRTVRYDYWGQGSQVTVSS”, which “polyreactivity (PSR sort gate)” value is on record?
The value was “high polyreactivity”.

For “QLQLVESGGGLVQAGGSLRLSCAATGSTFYDNAMGWYRQAHGKERELVARIRWSGVRTYYADSVKGRFTISRDNAKNTVYLQMNSLKPEDTAVYYCAAGRPRPHWWSLDYYYWGQGTQVTVSS”, which “polyreactivity (PSR sort gate)” value is on record?
Its value is “low polyreactivity”.

Which “polyreactivity (PSR sort gate)” value does the source give for “QLQLVESGGGLVQAGGSLRLSCAGSGSIFVGYAMGWYRQAPGKARELVAAISTRGGSTYYADSVKGRFTISRDNAKNTVYLQMNSLKPEDTAVYYCAADYLDSTYGYVYGWDDYWGQGTQVTVSS” here?
Its value is “low polyreactivity”.

For “QLQLVESGGGLVQAGGSLRLSCAPSGSTFESYAMGWYRQSPGKERELVAAISSSGGSTYYADSVKGRFTISRENAMNTVYLEMYRLIPEDTAVYYCAAPTFSRYYYWGQGTQVTVSS”, which “polyreactivity (PSR sort gate)” value is on record?
The value was “high polyreactivity”.

With “QLQLVESGGGLVQAGGSLRLSCASSGRIFRYNAMGWYRQAPGKERELVAVISGSGGSTYYADSVKGRFTISRDNAKNTVYLQMNSLKPEDTAVYYCAAQFHVSWYNYWGQGTQVTVSS” as the sequence, how does the “polyreactivity (PSR sort gate)” value read?
The value was “low polyreactivity”.

With “QLQLVESGGGLVQAGGSLRLTCAASGIIFAYNARGWYRQAPGKERELVATITDSRGSTSYADSVKGRFTISRDNAKNTVYLQMNSLKPEDTAVYYCAVLPVYWYWRNYVYLSGYDYWGQGTQVTVSS” as the sequence, how does the “polyreactivity (PSR sort gate)” value read?
The value was “low polyreactivity”.

With “QLQLVESGGGLVQAGGSLRLTCAASGSIIWVYAMGWYSQAPGKEWELVAAITSGVSTYYADSVKGRFTISRDHAKNTVSFQMISLKPEDTAVYYCAVVGGFRWIRMEYWGQGTQVTVSS” as the sequence, how does the “polyreactivity (PSR sort gate)” value read?
Its value is “low polyreactivity”.

Which “polyreactivity (PSR sort gate)” value does the source give for “QLQLVESGGVLVQAGASLRLSCAATVSTFIYYAMGWYRQAPGKEREVVAAISKRGGNTYYADSVKGRFTISRDNAKNTVYLQMNSLKPEDTAVYYCAARVYGTSRRYYSWGQGTQVTVSS” here?
Its value is “high polyreactivity”.

With “QLQLVESGRGLVQAGGSLRISCDASGSTFRRNAMGWYRPAPGKERELVAAITRGGGSTYYADSVKGRLTISRDNAKNTVYLQMNSLKPDDTAVYYCAAQISATRETMDYWGQGTQVTVSS” as the sequence, how does the “polyreactivity (PSR sort gate)” value read?
The value was “high polyreactivity”.

For “QLQLVESGRGLVQAGGSLRLSCAASGLIFGNYAKRSYRQPPGKESELVAAITSTGITYYADSVKGRFTISRDNAKNTVYLQMTSLKPEDTAVYYCAAASRFHPDRGGYWGQGTQVTVSS”, which “polyreactivity (PSR sort gate)” value is on record?
The value was “low polyreactivity”.

For “QLQLVESGRGLVQAGVSLRLSCAASGFIFEDYAMGCYRTAPGNDRELVAAISRRGGSTYYADSVKGRFTISRYNAKKTVYLQMNSLKPEDTAVYYCAAYYPYSGKGGYDYWGQGTQVTVSS”, which “polyreactivity (PSR sort gate)” value is on record?
Its value is “high polyreactivity”.

For “QLQLVETGGGLVQAGGSLRLSCAASGRIFQYYVMGWYRQAPGKERELVAAITSGGSTYYADSVKGRFTISRDNAKNTVYLQMNSLKPEDTAVYYCAAGYWYNFDYWGQGTQVTVSS”, which “polyreactivity (PSR sort gate)” value is on record?
Its value is “high polyreactivity”.

Which “polyreactivity (PSR sort gate)” value does the source give for “QLQLVQSGGGLVQAGGSLRLSCAASGRIFFKYVKGWYRQAPGKERELVAAISSAGSTYYADSVKRRFTISRDNAKNTVYLQMNSLQPEDTAVYYCATYYSAINYGWSKTILYDYWGQGTQVTVSS” here?
Its value is “low polyreactivity”.

With “QLQRVESGGGLVQAGGSLRLSCAASGITYRYYVMGWYRQAPGKETQLVAAITSGVSTYYADSVKGRFTISRDNAKNTVYLELNSLKPEDTAVDYCAADEPWTYYLYGKMYYWGQGTQVTVSS” as the sequence, how does the “polyreactivity (PSR sort gate)” value read?
The value was “high polyreactivity”.

Which “polyreactivity (PSR sort gate)” value does the source give for “QLQRVESGGGLVQAGGSLRLSCAASGSIFSPYAMGWYRQAPGKERELVAAISTRGGNTYYADSVKGRFTISRDNAKNTVYLQMNSLKPEDTAVYYCARKIRREGRYDYWGQGTQVTVSS” here?
Its value is “high polyreactivity”.

With “QVELVESAGGLVQAGGSLRLSCAGSGSTFEYNAMGWYRQGPGKERELVASSTNYADSVKGRFTISRDNAKNTVYLKMNSLKPEDTAVYYCAREQGVNRYHDYWGQGTQVTVSS” as the sequence, how does the “polyreactivity (PSR sort gate)” value read?
The value was “low polyreactivity”.

For “QVELVESGGGLVQAGGSLRLSCAASGITLRHYTMGWYRQAPGKVRELVATISRSGGRTYYADSVKGRFTISRDIAKNTVYLQMNSLKPEDTAFYYCARQFWRHWYGYWGQGTQVTVSS”, which “polyreactivity (PSR sort gate)” value is on record?
Its value is “high polyreactivity”.

For “QVELVESGGGLVQAGGSLRLSCAASGYTFRFNAMGWYRQAPGKEREFVAAIDFGGAGTYYADSVKGRFTISRDNAKNTVYLQMNSLKPEDTAVYYCNARDGVTTEFDYWGQGTQVTVSS”, which “polyreactivity (PSR sort gate)” value is on record?
Its value is “low polyreactivity”.
